Like-named read-outs stand apart in the source and are kept apart here. Values belong to the binder of their own block, whether it stands above or below them.
Key:
human PD-1-Fc = biological target: T1, human PD-1-Fc (human, UniProt Q15116 25-170, limits assumed); test: ELISA, binding to human PD-1-Fc
T1 construct: ELISA antigen

human PD-1 [1] = biological target: T2, human PD-1 (human, UniProt Q15116 25-167, limits assumed); test: SPR (Biacore), antibody as ligand, PD-1 as analyte
T2 construct: Analyte in solution in the Biacore runs; also called programmed cell death protein 1

mouse PD-1 [2] = biological target: T3, mouse PD-1 (mouse, UniProt Q02242 25-167, limits assumed); test: SPR (Biacore), antibody as ligand, PD-1 as analyte
T3 construct: Analyte in solution in the Biacore runs
T3 sequence: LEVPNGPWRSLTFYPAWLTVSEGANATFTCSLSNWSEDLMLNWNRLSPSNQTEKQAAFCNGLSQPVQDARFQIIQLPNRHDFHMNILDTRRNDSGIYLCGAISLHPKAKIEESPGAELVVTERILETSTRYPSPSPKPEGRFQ

human PD-1 [3] = biological target: T2, human PD-1; test: SPR (Biacore), antibody as ligand, PD-1 as analyte; remark: listed apart in the source
human PD-1 [4] = biological target: T2, human PD-1; test: SPR (Biacore), antibody as ligand, PD-1 as analyte; remark: listed apart in the source
mouse PD-1 [5] = biological target: T3, mouse PD-1; test: SPR (Biacore), antibody as ligand, PD-1 as analyte; remark: listed apart in the source

T2 sequence (Q15116 25-167 limits assumed): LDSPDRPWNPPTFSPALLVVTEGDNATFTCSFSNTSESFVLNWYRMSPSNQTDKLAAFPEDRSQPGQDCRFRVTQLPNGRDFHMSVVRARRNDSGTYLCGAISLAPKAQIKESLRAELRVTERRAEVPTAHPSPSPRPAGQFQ
T1 sequence (Q15116 25-170 limits assumed): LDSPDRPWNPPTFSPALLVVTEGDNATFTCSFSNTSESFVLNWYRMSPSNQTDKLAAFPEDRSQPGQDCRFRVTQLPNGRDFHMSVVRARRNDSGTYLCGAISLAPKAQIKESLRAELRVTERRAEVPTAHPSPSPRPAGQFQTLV

EC50 (read off the curve) (human PD-1-Fc): ~1 µg/mL | Ka (human PD-1 [1]): 202000 M⁻¹ | Kd (human PD-1 [1]): 4.95 µM | Ka (mouse PD-1 [2]): 1.18e+06 M⁻¹ | Kd (mouse PD-1 [2]): 0.85 µM
B1: monoclonal antibody 5C2 (antibody, IgG1, V domains shown)
VH: QVQLQQPGAELVKPGASVKVSCKASGYTFTSYWMHWVKQRPGQGLEWIGRIHPSDSDTNYNQKFKGKATLTVDKSSSTAYMQLSSLTSEDSAVYYCAPYGNYASGFAYWGQGTLVTVSA
VL: DIVMTQSHKFMSTSVGDRVSITCKASQDVSTAVAWYQQKPGQSPKLLIYWASTRHTGVPDRFTGSGSGTDYTLTISSVQAEDLALYYCQQHYSTPWTFGGGTKLEIKR
notes: the two clones are reported with different SPR values; also called 5C2 anti-PD-1 antibody

Ka (human PD-1 [3]): 3.14e+06 M⁻¹ | Kd (human PD-1 [3]): 0.319 µM
B2: monoclonal antibody 4C12 (antibody, mouse IgG1, kappa, V domains shown)
VH: B1 VH
VL: B1 VL
notes: also called 4C12 anti-PD-1 antibody

EC50 (read off the curve) (human PD-1-Fc): ~0.5 µg/mL | Ka (human PD-1 [4]): 952000 M⁻¹ | Kd (human PD-1 [4]): 1.05 µM | Ka (mouse PD-1 [5]): 194000 M⁻¹ | Kd (mouse PD-1 [5]): 5.15 µM | koff (mouse PD-1 [5]): 0.0103 s⁻¹ | kon (mouse PD-1 [5]): 2000 M⁻¹ s⁻¹
B3: monoclonal antibody 4G9 (antibody, mouse IgG2b, kappa, V domains shown)
VH: QIQLVQSGPELKKPGETVKISCKASGYTFTTYGMTWVKQAPGKGLKWMGWINTYSGVPTYADDFKGRFAFSLETSASTAYLQINNLKNEDTATYFCARGGRGFAYWGQGTLVTVSA
VL: DILLTQSPAILSVSPGERVSFSCRASQSIGTSIHWYQQRTNGSPRLLIKYASESISGIPSRFSGSGSGTDFTLSINSVESEDIADYYCQQSNSWPYTFGGGTKLEIKR
notes: also called 4G9 anti-PD-1 antibody
